Patent US20230416351A1

Biological target: recombinant VEGF165 protein (human) (UniProt P15692)
Assay: SPR in vitro binding, drug and recombinant VEGF165, 37 C

recombinant VEGF165 protein (human), sequence (P15692 other isoform, or with tags, fused parts or gaps): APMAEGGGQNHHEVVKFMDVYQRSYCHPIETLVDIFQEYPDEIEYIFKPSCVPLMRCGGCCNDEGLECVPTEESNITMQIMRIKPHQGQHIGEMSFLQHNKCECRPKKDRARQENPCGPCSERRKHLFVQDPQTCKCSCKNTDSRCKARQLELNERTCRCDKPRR

Kd: 0.457 nM
Substance: aflibercept (Fc fusion)
